Assay results published in article PMC10940770, “Loss of function and reduced levels of sphingolipid desaturase DEGS1 variants are both relevant in disease mechanism” (Journal of Lipid Research, 2024).
Substitutions are numbered along the chain they refer to. Numbers in names are those of the source.

B1: DEGS2 (Homo sapiens) (protein)
chain: GNSASRSDFEWVYTDQPHTQRRKEILAKYPAIKALMRPDPRLKWAVLVLVLVQMLACWLVRGLAWRWLLFWAYAFGGCVNHSLTLAIHDISHNAAFGTGRAARNRWLAVFANLPVGVPYAASFKKYHVDHHRYLGGDGLDVDVPTRLEGWFFCTPARKLLWLVLQPFFYSLRPLCVHPKAVTRMEVLNTLVQLAADLAIFALWGLKPVVYLLASSFLGLGLHPISGHFVAEHYMFLKGHETYSYYGPLNWITFNVGYHVEHHDFPSIPGYNLPLVRKIAPEYYDHLPQHHSWVKVLWDFVFEDSLGPYARVKRVYRLAKDGL
notes: full-length cDNA (from colon mucosa RNA) in pcDNA3, transfected into DEGS1-knockout HEK-293T (KO-DES-HEK); cell homogenate with Triton X-100
B2: DEGS1 (Homo sapiens) (protein)
chain: GSRVSREDFEWVYTDQPHADRRREILAKYPEIKSLMKPDPNLIWIIIMMVLTQLGAFYIVKDLDWKWVIFGAYAFGSCINHSMTLAIHEIAHNAAFGNCKAMWNRWFGMFANLPIGIPYSISFKRYHMDHHRYLGADGVDVDIPTDFEGWFFCTAFRKFIWVILQPLFYAFRPLFINPKPITYLEVINTVAQVTFDILIYYFLGIKSLVYMLAASLLGLGLHPISGHFIAEHYMFLKGHETYSYYGPLNLLTFNVGYHNEHHDFPNIPGKSLPLVRKIAAEYYDNLPHYNSWIKVLYDFVMDDTISPYSRMKRHQKGEMVLE
notes: full-length cDNA (from Hep3B RNA) in pcDNA3, untagged, transfected into DEGS1-knockout HEK-293T (KO-DES-HEK); cell homogenate with Triton X-100
B3: DEGS1 (Homo sapiens; A280V) (protein)
chain: B2 chain with A279V
notes: as for B2
B4: DEGS1 (Homo sapiens; N189D) (protein)
chain: B2 chain with N188D
notes: as for B2
B5: DEGS1 (Homo sapiens; N255S) (protein)
chain: B2 chain with N254S
notes: as for B2
B6: DEGS1 (Homo sapiens; L175Q) (protein)
chain: B2 chain with L174Q
notes: as for B2

Tests used:
[1] = substrate: CCCCCCCCCCCCCCC[C@@H](O)[C@H](CO)NC(=O)CCCCCCCCCCCC; experiment: LC-MS/MS of C13-Cerd7 formed; Hanes-Woolf plot; assay type: biochemical, Homo sapiens; conditions: homogenate of transfected KO-DES-HEK (80 μg, 30 min) plus 100 μg KO-DES-HEK homogenate, 0.2 M Tris/HCl pH 7, 0.2% Triton X-100, 1 mM NADPH, 37°C, deuterated substrate
Text: LC-MS/MS of C13-Cerd7 formed; Hanes-Woolf plot on DEGS2

[2] = substrate: CCCCCCCCCCCCCCC[C@@H](O)[C@H](CO)NC(=O)CCCCCCCCCCCC; experiment: LC-MS/MS of C13-Cerd7 formed; Hanes-Woolf plot; assay type: biochemical, Homo sapiens; conditions: 0.2 M Tris/HCl pH 7, 0.2% Triton X-100, 1 mM NADPH, 37°C, deuterated substrate
Text: LC-MS/MS of C13-Cerd7 formed; Hanes-Woolf plot on DEGS1

[3] = homogenate of transfected KO-DES-HEK (80 μg, 30 min) plus 100 μg KO-DES-HEK homogenate

Protein	Km [2, 3] [µM]	further results
B1	–	Km [1]: 15.31 µM
B2	–	Km ([2]; homogenate of transfected KO-DES-HEK (40 μg, 10 min) plus 100 μg KO-DES-HEK homogenate): 2.41 µM
B3	3.29	–
B4	2.75	–
B5	4.34	–
B6	5.99	–
